Experimental findings from patent publication US7807384B2, “Low density lipoprotein binding proteins and their use in diagnosing and treating atherosclerosis” (Boston Heart Foundation, Inc., priority 1996, dated 2010) are described below.

Data set [1] concerns the target T1, LDL (Homo sapiens, UniProt P04114).
T1 construct: LDL was prepared from the plasma of normolipemic donors; from tissue; host or cells: blood plasma of normolipemic donors, density ultracentrifugation
As to the kind of experiment: Affinity coelectrophoresis (ACE) assay of LBP binding to LDL. Particulars: LDL 540 to 14 nM cast in gel. How it is done: (§1) Analysis of the affinity and specificity of recombinant rabbit LBP-1, LBP-2 or LBP-3 binding to LDL was carried out using the principle of affinity electrophoresis (Lee and Lander, Proc. Natl. Acad. Sci. USA 88:2768-2772 (1991)). Melted agarose (1%; 65° C.) was prepared in 50 mM sodium MOPS, pH 7.0; 125 mM sodium acetate, 0.5% CHAPS. A teflon comb consisting of nine parallel bars (45×4×4 mm/3 mm spacing between bars) was placed onto GelBond film (FMC Bioproducts, Rockland, Me.) fitted to a plexiglass casting tray with the long axis of the bars parallel to the long axis of the casting tray. A teflon strip (66×1×1 mm) was placed on edge with the long axis parallel to the short axis of the casting tray, at a distance of 4 mm from the edge of the teflon comb. Melted agarose (>65° C.) was then poured to achieve a height of approximately 4 mm. […] LDL or HDL samples were prepared in gel buffer (50 mM sodium MOPS, pH 7.0, 125 mM sodium acetate) at twice the desired concentration. Samples were then mixed with an equal volume of melted agarose (in 50 mM MOPS, pH 7.0; 125 mM sodium acetate; 50° C.), pipetted into the appropriate rectangular wells and allowed to gel. The binding affinity and specificity of LBP-1 and LBP-3 was tested using several concentrations of LDL (540 to 14 nM) and HDL (2840177 nM). A constant amount (0.003 nM-0.016 nM) of ^125I-labeled LBP-1, LBP-2 or LBP-3 (suspended in 50 mM sodium MOPS, pH 7.0; 125 mM sodium acetate; 0.5% bromophenol blue; 6% (wt/vol) sucrose) was loaded into the slot. Gels were electrophoresed at 70 v/2 hr/20° C. At the end of the run, the gels were air dried and retardation profiles were visualized by exposure of X-ray films to the gels overnight at −70° C., with intensifying screens.
Rabbit and human LBP-2 contain a long stretch of acidic amino acids at the amino terminal (rabbit LBP-2 amino acid residues 338 through 365 and human LBP-2 amino acid residues 329 through 354). […]

The subject of data set [2] is HDL. Description: Affinity coelectrophoresis (ACE) assay of LBP binding to HDL. Set-up: species or system human. Particulars: HDL cast in gel. How it is done:
as §1, with “A constant amount (0.003 nM-0.016 nM) of ^125I-labeled LBP-1, LBP-2 or LBP-3 (suspended in 50 mM sodium MOPS, pH 7.0; 125 mM sodium acetate; 0.5% bromophenol blue; 6% (wt/vol) sucrose) was loaded into the slot. Gels were electrophoresed at 70 v/2 hr/20° C. At the end of the run, the gels were air dried and retardation profiles were visualized by exposure of X-ray films to the gels overnight at −70° C., with intensifying screens.” left out

In data set [3] the target is T1, LDL. Description: ACE competition: cold LBP versus radiolabeled LBP binding to LDL. Particulars: fixed cold LDL and radiolabeled LBP, increasing cold recombinant LBP. How it is done:
Competition studies were carried out using fixed concentrations of cold LDL and radiolabeled LBP-1 and increasing amounts of cold recombinant LBP-1 (6-31 μM). The ACE assay samples and gel were prepared as described herein.
Competition studies using fixed concentrations of cold LDL and clone 26 derived radiolabeled LBP-2 and increasing concentrations of cold recombinant LBP-2/clone 26 and LBP-a/clone 45 were carried out.

Data set [4] in a line: Body weight and serum lipids of LBP-immunized apo E knockout mice. Format: in vivo, mouse. Particulars: P>0.05. As for the experimental part: (§2) Four week old apo E knockout mice (Jackson Laboratories, Bar Harbor, Me.) were ear tagged, randomly assigned to different cages and weighed. Body weights were determined weekly. Animals were allowed to habituate for 1 week. Normal rodent chow was provided ad libitum and animals were maintained in a 12:12 light:dark cycle. The following four groups of mice were treated with either recombinant LBP proteins (40 μg of recombinant protein/mouse) plus RIBI adjuvant or RIBI adjuvant alone (control group).
Blood samples were analyzed for total cholesterol, HDL cholesterol, and triglyceride concentration with a commercially available total cholesterol and triglycerides assay kits (Sigma; St. Louis Mo.) using an ELISA format. HDL concentration was determined after Apo B containing lipoproteins were precipitated using heparin/MnCl2.
Data were analyzed using T-tests and Wilcoxons.

Data set [5] has as its system apo E knockout mice. As to the kind of experiment: Aortic lesion area (Sudan IV staining) in LBP-immunized apo E knockout mice. Format: in vivo, mouse. Particulars: for Effect of immunization on lesions / lesion area: apo E knockout mice; for Lesion Area % Coverage: apo E mice, 26 weeks of age, control 9.40. As for the experimental part: (§3) Separate immunization experiments were performed with each of LBP-1, LBP-2, and LBP-J. Immunity was induced by injecting apo E knockout mice with the LBP protein (LBP-1, LBP-2, or LBP-3) together with an RIBI adjuvant (RIBI ImmunoChem Research, Inc., Hamilton, Mont.). Apo E knockout mice (Jackson Laboratories, Bar Harbor, Me.) are hyperlipidemic and thus a model for human atherosclerosis. Apo E knockout mice have high levels of plasma cholesterol and develop naturally-occurring atherosclerotic-like lesions.
as §2
(§4) Apo E knockout mice were sacrificed at 26 weeks of age. The mice were anesthetized with methoxyfluorane and exanguinated via cardiac puncture. A midline thoracotomy was performed, a cannula inserted into the right ventricle and perfusate allowed unrestricted flow via an incision into the right atrium. The mice were perfused with saline, followed by 10% phosphate buffered formalin until fasciculations stopped. At this time, the aorta was exposed and adventitial fat removed in situ. The aorta was then removed from the heart down to the iliac bifurcation and placed in 10% phosphate buffered formalin overnight.
The aorta was stained as follows: after a brief 70% ethanol rinse, it was immersed in a filtered solution of 0.5% (weight/volume) Sudan IV in 35% ethanol/50% acetone with continuous shaking for 10 minutes at room temperature. Unbound dye was removed by incubating the aorta in an 80% ethanol solution with shaking until the background color was clear. The vessel was then rinsed in distilled water, placed in physiological saline and opened longitudinally from the aortic arch down to the iliac bifurcation. The vessel was pinned out and photographed. Photographs were then digitized using an Astra 1200S scanner (UMAX Technologies Inc., Freemont, Calif.) and a commercially available graphics program (Canvas; Deneba Software, Miami Fla.). Total and lesion areas were determined using the signal processing toolbox of MATLAB (The Mathworks Inc., Natick, Mass.). Percent involvement was calculated by dividing lesion area by total area.

Data set [6] deals with apo E knockout mice. As to the kind of experiment: Aortic cholesterol content (cholesterol extraction method) in LBP-immunized apo E knockout mice. In kind it is in vivo, mouse. The settings on record: for Arterial Wall Cholesterol: apo E mice. As for the experimental part:
as §3, §2, §4
A second analysis was done to measure aortic atherosclerosis by a cholesterol extraction method whereby cholesterol is determined as a unit weight of artery. This method may be more accurate in measuring lesion size than attempting to measure the thickness of many sections. Specifically, the weight of an artery was measured, then the cholesterol was extracted. Aortic cholesterol content was then measured by gas-liquid chromatography. The amount of cholesterol per unit weight of artery was then determined.

The test system of data set [7] is ballooned deendothelialized rabbit aorta. As to the kind of experiment: Radiolabeled LDL accumulation in ballooned deendothelialized abdominal aorta after active immunization. In kind it is in vivo. The settings on record: immunized with RIBI adjuvant; corrected for dosage and percent reendothelialization; 24 hr after 125I-LDL. As for the experimental part:
Immunity was induced in male New Zealand White rabbits (Hazelton Research Products, Denver, Pa.) as follows: A mixture of purified human recombinant LBP-2 or BHF-1 peptide (1 ml; 1 mg) and RIBI adjuvant (RIBI ImmunoChem Research, Inc., Hamilton, Mont.) was injected subcutaneously at 2-5 sites along the dorsal thoracic and abdominal regions of the rabbits. Blood was collected by venipuncture on days 1 (preimmune bleeding), 35, 63, and 91. Booster injections were administered on days 28 (500 μg; SC), 56 (250 μg; SC), and 84 (125 μg; SC).
On day 93, the abdominal aorta of immunized and control rabbits was deendothelialized using a Fogarty number 4 embolectomy catheter (Chang et al., Arteriosclerosis and Thrombosis 12:1088-1098 (1992)). Four weeks after ballooning, rabbits received a bolus injection of ^125I-labeled LDL (1 ml; i.v.). […] Blood samples were centrifuged for 30 min at 2000 rpm ([…]) and total activity present in the serum was determined using a Gamma counter. Total TCA precipitable counts were determined by addition of TCA to the serum to a final concentration of 10% followed by incubation for 10 min at 4° C. Serum samples were then centrifuged (2000 rpm; 30 min; […]) and total activity present in the supernate was determined. TCA precipitable counts were calculated by subtraction: total soluble counts minus counts present in the supernate after TCA precipitation. […]

Data set [8] concerns LDL receptor negative knockout mice. As to the kind of experiment: Lesions in LBP-immunized LDL receptor negative knockout mice. Format: in vivo, mouse. The settings on record: P>0.05.

T1 sequence (P04114 28-4563): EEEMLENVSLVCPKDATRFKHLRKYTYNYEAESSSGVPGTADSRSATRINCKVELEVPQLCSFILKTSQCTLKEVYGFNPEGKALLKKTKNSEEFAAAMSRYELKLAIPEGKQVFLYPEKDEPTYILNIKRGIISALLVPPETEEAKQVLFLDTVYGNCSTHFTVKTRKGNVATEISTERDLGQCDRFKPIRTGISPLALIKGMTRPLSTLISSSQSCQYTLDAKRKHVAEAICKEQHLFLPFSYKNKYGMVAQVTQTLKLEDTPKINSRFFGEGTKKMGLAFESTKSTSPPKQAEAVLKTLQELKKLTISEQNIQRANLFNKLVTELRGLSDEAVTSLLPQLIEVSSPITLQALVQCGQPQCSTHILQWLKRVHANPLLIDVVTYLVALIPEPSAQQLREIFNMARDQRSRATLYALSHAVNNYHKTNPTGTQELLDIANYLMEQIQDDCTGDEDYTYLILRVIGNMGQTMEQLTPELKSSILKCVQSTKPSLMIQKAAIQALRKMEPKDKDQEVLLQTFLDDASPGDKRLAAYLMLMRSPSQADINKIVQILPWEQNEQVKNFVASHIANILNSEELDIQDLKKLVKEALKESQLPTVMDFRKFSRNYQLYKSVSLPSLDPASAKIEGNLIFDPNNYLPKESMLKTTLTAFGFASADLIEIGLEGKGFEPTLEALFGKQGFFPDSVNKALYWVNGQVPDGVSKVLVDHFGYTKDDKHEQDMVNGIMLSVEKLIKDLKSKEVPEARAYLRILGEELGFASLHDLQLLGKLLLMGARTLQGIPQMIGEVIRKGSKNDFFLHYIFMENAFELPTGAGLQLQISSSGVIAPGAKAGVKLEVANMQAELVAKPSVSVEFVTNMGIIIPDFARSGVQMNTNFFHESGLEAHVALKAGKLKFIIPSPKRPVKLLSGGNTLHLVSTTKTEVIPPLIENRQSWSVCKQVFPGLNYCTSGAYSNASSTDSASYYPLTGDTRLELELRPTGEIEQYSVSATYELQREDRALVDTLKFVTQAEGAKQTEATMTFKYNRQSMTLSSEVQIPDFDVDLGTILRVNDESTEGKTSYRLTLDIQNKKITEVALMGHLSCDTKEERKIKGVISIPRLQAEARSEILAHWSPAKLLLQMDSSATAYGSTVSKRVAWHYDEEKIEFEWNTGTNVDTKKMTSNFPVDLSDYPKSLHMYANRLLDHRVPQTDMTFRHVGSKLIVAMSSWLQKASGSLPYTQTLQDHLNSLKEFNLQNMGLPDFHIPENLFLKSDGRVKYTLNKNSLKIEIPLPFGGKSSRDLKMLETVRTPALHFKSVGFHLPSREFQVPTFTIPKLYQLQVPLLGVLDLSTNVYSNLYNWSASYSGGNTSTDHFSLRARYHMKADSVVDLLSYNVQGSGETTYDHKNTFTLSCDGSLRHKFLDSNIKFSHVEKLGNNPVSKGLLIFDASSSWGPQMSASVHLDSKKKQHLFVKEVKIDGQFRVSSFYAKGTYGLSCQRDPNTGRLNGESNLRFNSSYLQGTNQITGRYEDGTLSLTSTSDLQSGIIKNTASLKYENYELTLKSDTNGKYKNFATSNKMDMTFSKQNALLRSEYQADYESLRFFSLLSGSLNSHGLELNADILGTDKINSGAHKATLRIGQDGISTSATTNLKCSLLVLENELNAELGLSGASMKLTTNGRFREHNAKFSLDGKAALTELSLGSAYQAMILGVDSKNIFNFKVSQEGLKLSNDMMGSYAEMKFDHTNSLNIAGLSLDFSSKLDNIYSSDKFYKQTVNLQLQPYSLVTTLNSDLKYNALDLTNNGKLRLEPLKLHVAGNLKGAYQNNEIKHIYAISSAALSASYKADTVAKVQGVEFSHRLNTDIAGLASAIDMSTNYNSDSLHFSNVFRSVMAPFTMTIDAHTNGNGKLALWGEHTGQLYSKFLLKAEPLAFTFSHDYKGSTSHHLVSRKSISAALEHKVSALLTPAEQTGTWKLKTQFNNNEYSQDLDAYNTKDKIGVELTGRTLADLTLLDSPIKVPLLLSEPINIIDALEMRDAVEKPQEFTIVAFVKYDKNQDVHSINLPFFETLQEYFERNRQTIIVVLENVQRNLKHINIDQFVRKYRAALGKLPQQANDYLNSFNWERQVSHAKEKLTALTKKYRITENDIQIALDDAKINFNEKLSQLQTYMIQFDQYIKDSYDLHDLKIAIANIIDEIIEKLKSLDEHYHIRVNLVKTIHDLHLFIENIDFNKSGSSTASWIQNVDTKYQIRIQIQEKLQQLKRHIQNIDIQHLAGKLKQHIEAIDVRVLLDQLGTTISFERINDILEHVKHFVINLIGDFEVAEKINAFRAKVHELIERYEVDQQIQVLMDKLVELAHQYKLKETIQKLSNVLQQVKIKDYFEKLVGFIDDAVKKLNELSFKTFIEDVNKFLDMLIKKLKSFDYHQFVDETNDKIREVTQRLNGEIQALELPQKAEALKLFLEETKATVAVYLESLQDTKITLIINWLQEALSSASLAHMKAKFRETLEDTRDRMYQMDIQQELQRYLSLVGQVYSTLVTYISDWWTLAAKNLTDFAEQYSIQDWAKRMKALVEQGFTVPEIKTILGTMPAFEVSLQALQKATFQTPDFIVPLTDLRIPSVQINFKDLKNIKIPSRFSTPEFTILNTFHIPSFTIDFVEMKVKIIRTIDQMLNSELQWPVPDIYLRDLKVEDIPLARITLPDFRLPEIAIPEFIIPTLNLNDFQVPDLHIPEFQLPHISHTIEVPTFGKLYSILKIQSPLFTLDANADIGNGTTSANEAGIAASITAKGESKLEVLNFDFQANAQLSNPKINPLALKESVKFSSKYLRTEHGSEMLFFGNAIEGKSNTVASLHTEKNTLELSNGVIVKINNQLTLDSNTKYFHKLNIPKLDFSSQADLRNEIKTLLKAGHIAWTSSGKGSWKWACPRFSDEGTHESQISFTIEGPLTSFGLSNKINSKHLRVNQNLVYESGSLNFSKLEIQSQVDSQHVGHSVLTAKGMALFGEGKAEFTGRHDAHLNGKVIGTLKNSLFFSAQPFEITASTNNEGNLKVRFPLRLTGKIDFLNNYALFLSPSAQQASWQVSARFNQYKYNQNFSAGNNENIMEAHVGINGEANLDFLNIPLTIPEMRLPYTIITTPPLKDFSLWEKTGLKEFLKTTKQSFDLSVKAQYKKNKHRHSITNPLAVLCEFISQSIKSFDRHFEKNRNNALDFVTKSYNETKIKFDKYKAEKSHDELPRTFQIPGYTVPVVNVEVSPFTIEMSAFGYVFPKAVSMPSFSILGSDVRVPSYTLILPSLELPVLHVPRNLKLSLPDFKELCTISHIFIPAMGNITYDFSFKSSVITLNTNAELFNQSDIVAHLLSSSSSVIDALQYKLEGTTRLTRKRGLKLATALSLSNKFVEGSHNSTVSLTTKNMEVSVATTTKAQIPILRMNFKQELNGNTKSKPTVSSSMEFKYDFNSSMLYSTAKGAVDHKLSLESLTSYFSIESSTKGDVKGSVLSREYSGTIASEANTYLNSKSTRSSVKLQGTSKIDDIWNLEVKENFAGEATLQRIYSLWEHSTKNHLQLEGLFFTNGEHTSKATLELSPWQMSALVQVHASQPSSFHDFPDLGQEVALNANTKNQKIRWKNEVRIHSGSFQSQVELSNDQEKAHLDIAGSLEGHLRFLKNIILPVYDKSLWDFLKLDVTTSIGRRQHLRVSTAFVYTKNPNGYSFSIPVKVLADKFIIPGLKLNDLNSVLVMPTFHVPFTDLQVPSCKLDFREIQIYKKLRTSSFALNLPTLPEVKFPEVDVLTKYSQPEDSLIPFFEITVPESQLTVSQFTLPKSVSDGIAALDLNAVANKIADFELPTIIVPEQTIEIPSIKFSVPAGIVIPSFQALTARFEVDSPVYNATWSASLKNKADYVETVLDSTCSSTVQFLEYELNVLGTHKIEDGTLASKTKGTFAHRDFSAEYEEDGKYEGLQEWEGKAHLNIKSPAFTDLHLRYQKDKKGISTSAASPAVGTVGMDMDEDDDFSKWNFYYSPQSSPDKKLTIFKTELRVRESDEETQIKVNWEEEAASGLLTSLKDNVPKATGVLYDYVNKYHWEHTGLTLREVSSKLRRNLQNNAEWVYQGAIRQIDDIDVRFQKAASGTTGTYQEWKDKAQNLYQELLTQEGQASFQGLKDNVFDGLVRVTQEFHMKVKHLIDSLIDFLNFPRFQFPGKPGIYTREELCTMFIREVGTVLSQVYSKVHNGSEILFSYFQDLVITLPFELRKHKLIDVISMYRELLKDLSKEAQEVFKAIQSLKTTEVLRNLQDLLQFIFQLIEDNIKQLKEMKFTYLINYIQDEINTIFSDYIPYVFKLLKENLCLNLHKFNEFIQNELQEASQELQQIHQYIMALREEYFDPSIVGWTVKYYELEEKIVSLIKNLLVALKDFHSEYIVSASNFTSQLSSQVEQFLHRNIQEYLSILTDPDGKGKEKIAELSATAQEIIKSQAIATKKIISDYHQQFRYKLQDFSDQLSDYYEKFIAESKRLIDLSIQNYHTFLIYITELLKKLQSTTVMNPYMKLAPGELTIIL

B1: LBP-2: rabbit recombinant LBP-2 clone 26 (6-His tag), contains the acidic region (protein)
chain: PPPPQQPQPPPEGGAARAGGPARPVSLREVVRYLGGSSGAGGRLTRGRVQGLLEEEAAARGRLERTRLGALALPRGDRPGRAPPAASARAARNKRAGEERVLEKEEEEEEEEDDEDDDDDVVSEGSEVPESDRPAGAQHHQLNGGERGPQTAKERAKEWSLCGPHPGQEEGRGPAAGSGTRQVFSMAALSKEGGSASSTTGPDSPSPVPLPPGKPALPGADGTPFGCPAGRKEKPADPVEWTVMDVVEYFTEAGFPEQATAFQEQEIDGKSLLLMQRTDVLTGLSIRLGPALKIYEHHIKVLQQGHFEDDDPEGFLG
modifications: left off: small tags and cut ends
notes: rabbit recombinant LBP-2 clone 26 (6-His tag), contains the acidic region
For the molecule B1, the “Retardation of radiolabeled LBP migration through the gel by LDL” value is on record as “concentration-dependent, saturable manner” in data set [1] and “concentration-dependent, saturable, manner” in data set [1] (listed as clone 26). In data set [2], the “Retardation of radiolabeled LBP migration by HDL” value is “did not retard”. The “Inhibition by cold LBP of radiolabeled LBP binding to LDL” value in data set [3] is given as “inhibited binding”. In data set [4], the “Effect of immunization on body weight” value is given as “did not have a significant effect”. For the same molecule, the “Effect of immunization on lesions / lesion area” value in data set [5] is “significant effect”. Besides, in data set [5], the “Lesion Area % Coverage” value came out at 6.01%. Besides, the “Effect of immunization on arterial wall cholesterol content” value in data set [6] (apo E knockout mice, once outliers were deleted) is given as “significant effect”. Moreover, the “Arterial Wall Cholesterol” value in data set [6] (26 weeks of age, control 6.33) is reported as 3.28 ug cholesterol/mg aorta; in data set [6] (outliers deleted), 1.83 ug cholesterol/mg aorta.

B2: recombinant human LBP-2: purified human recombinant LBP-2 used as immunogen with RIBI adjuvant (protein)
chain: EERVLEKEEEEDDDEDEDEEDDVSEGSEVPESDRPAGAQHHQLNGERGPQSAKERVKEWTPCGPHQGQDEGRGPAPGSGTRQVFSMAAMNKEGGTASVATGPDSPSPVPLPPGKPALPGADGTPFGCPPGRKEKPSDPVEWTVMDVVEYFTEAGFPEQATAFQEQEIDGKSLLLMQRTDVLTGLSIRLGPALKIYEHHIKVLQQGHFEDDDPDGFLG
With B2, the “Accumulation of radiolabeled LDL in ballooned abdominal aorta versus nonimmune-ballooned rabbits” value in data set [7] is listed as “lower accumulation”.

B3: LBP-3: rabbit recombinant LDL binding protein LBP-3 (6-His tag), SEQ ID NO: 5 (protein, listed as Oryctolagus cuniculus)
chain: MKNQDKKNGAAKQPNPKSSPGQPEAGAEGAQGRPGRPAPAREAEGASSQAPGRPEGAQAKTAQPGALCDVSEELSRQLEDILSTYCVDNNQGAPGEDGVQGEPPEPEDAEKSRAYVARNGEPEPGTPVVNGEKETSKAEPGTEEIRTSDEVGDRDHRRPQEKKKAKGLGKEITLLMQTLNTLSTPEEKLAALCKKYAELLEEHRNSQKQMKLLQKKQSQLVQEKDHLRGEHSKAILARSKLESLCRELQRHNRSLKEEGVQRAREEEEKRKEVTSHFQMTLNDIQLQMEQHNERNSKLRQENMELAERLKKLIEQYELREEHIDKVFKHKDLQQQLVDAKLQQAQEMLKEAEERHQREKDFLLKEAVESQRMCELMKQQETHLKQQLALYTEKFEEFQNTLSKSSEVFTTFKQEMEKMTKKIKKLEKETTMYRSRWESSNKALLEMAEEKTLRDKELEGLQVKIQRLEKLCRALQTERNDLNKRVQDLSAGGQGPVSDSGPERRPEPATTSKEQGVEGPGAQVPNSPRATDASCCAGAPSTEASGQTGPQEPTTATA
modifications: 6-His tag
With B3, in data set [1], the “Retardation of radiolabeled LBP migration through the gel by LDL” value is “concentration-dependent, saturable manner”. In addition, the “Retardation of radiolabeled LBP migration by HDL” value in data set [2] is recorded as “did not retard”. Besides, in data set [3], the “Inhibition by cold LBP of radiolabeled LBP binding to LDL” value is “inhibited binding”. Also, the “Effect of immunization on body weight” value in data set [4] is on record as “did not have a significant effect”. Also, in data set [5], the “Effect of immunization on lesions / lesion area” value is reported as “did not have a significant effect” and the “Lesion Area % Coverage” value turned out to be 7.14%. Also, the “Arterial Wall Cholesterol” value in data set [6] (26 weeks of age, control 6.33) came out at 4.48 ug cholesterol/mg aorta. Further, the “Effect of immunization on lesions” value in data set [8] was “did not have a significant effect”.
